Measurements as given in article PMC9368758, “Cellular Redox Metabolism Is Modulated by the Distinct Localization of Cyclic Nucleotide Phosphodiesterase 5A Isoforms” (International Journal of Molecular Sciences, 2022).
“And” between values parts separate entries of the source, which are not always exact repeats. Identical values can stand only once. One block for each molecule: values may come before it.

Legend:
[1] = target: MmPDE5A2 (Mus musculus cGMP-specific phosphodiesterase 5A, isoform A2), produced in K. lactis CBS2359 transformed with p3XFlagPDE5A2 (Mus musculus); test: native gel or EMSA; native PAGE, 5% non-denaturing gel, Tris/glycine pH 8.3, 4 C, 1.0 ug purified protein, Coomassie; pre-incubated at 30 C up to 3 h with or without DTT, cGMP, sildenafil or diamide
[2] = target: MmPDE5A2 (Mus musculus cGMP-specific phosphodiesterase 5A, isoform A2), produced in K. lactis CBS2359 transformed with p3XFlagPDE5A2 (Mus musculus); test: SEC; purified protein (300 ug) on Superose 12 HR 10/30, 4 C, 0.20 mL/min, 20 mM HEPES pH 7.0, 1 mM EGTA, 5 mM beta-mercaptoethanol, 5 mM MgCl2, 100 mM NaCl, 2 mM PMSF, 0.05% Triton X-100; fractions tested for cGMP-hydrolysing activity and by native Western blot; column calibrated with MW markers
[3] = target: MmPDE5A3 produced in the K. lactis ragx1 mutant (Mus musculus); test: native gel or EMSA; native PAGE, 5% non-denaturing gel, Tris/glycine pH 8.3, 4 C, 1.0 ug purified protein, Coomassie; pre-incubated at 30 C up to 3 h with or without DTT, cGMP, sildenafil or diamide
[4] = target: MmPDE5A3 (Mus musculus cGMP-specific phosphodiesterase 5A, isoform A3), produced in K. lactis wild type strain CBS2359 (Mus musculus); test: as above
[5] = target: MmPDE5A3 (Mus musculus cGMP-specific phosphodiesterase 5A, isoform A3), produced in K. lactis wild type strain CBS2359 (Mus musculus); test: SEC; purified protein (300 ug) on Superose 12 HR 10/30, 4 C, 0.20 mL/min, 20 mM HEPES pH 7.0, 1 mM EGTA, 5 mM beta-mercaptoethanol, 5 mM MgCl2, 100 mM NaCl, 2 mM PMSF, 0.05% Triton X-100; fractions tested for cGMP-hydrolysing activity and by native Western blot; column calibrated with MW markers
[6] = target: MmPDE5A2 produced in the K. lactis ragx1 mutant (Mus musculus); test: native gel or EMSA; native PAGE, 5% non-denaturing gel, Tris/glycine pH 8.3, 4 C, 1.0 ug purified protein, Coomassie; pre-incubated at 30 C up to 3 h with or without DTT, cGMP, sildenafil or diamide
[7] = target: the molecule itself; test: native gel or EMSA; native PAGE of K. lactis cell extracts with in-gel activity staining for G6PDH; cultures on various glucose concentrations, methylene blue, G418, ethanol; extracts also incubated overnight with NAD+ or NADP+

stoichiometry N [1]: 2 | stoichiometry N [2]: 2
Molecule: MmPDE5A2 (Mus musculus cGMP-specific phosphodiesterase 5A, isoform A2), produced in K. lactis CBS2359 transformed with p3XFlagPDE5A2 (enzyme)

stoichiometry N [3]: 2
Molecule: MmPDE5A3 produced in the K. lactis ragx1 mutant (enzyme)

stoichiometry N [4]: 2 | stoichiometry N [5]: 2
Molecule: MmPDE5A3 (Mus musculus cGMP-specific phosphodiesterase 5A, isoform A3), produced in K. lactis wild type strain CBS2359 (enzyme)

stoichiometry N [6]: 2
Molecule: MmPDE5A2 produced in the K. lactis ragx1 mutant (enzyme)

B1: Glc-6-phosphate dehydrogenase (G6PDH) of Kluyveromyces lactis (enzyme, K. lactis (endogenous in CBS2359), UniProt P48828 1-497, looked up)
chain: MATQFDENTVITIFGASGDLSKKKTFPALFGLYREGYLNPTTKIIGYARSKLSNEDLREKVKPFLKKPNGAKDDAKVNEFLSMVSYHAGPYDSDEGYLELKKIIEEFEAEKKVDEPHRLFYLALPPSIFIDVCSKLKENLYTESGIQRVIVEKPFGHDLQSATELQEKLAPLFSEDELFRIDHYLGKEMVKNLLLMRFGNTFLNAAWNKENIQSVQVVFKEPFGTEGRGGYFDSIGIIRDVMQNHLLQVLTLLTMERPVSFDPESVRDEKVKVLKAFSPIDHDDILIGQYGRSVDGSKPSYLDDETVKEDSKCVTFAAIGFKIANERWDGVPIVMRAGKALNEGKVEIRIQFRRVASGMFTDIPNNELVIRIQPNEAIYLKCNAKTPGLANENQTTELDLTYSERYKNYWIPEAYESLIRDALLGDHSNFVRDDELDVSWKLFTPLLNYLEGPDGPQPKIYPYGCRSPDGLVEFLADHGYTFSKPGSYQWPVTTPKM
notes: glucose-6-phosphate 1-dehydrogenase, Kluyveromyces lactis, endogenous enzyme seen by in-gel activity staining; Seen as a slow (tetramer) and a faster (dimer) band; also called glucose 6-phosphate dehydrogenase; source: endogenous, K. lactis cell extracts
stoichiometry N [7]: 4 and 2
